Test results: patent US20100196385A1 (AstraZeneca / MedImmune, published 2010)

T1: human Dll1 (human, UniProt O00548 18-723)
T1 construct: whole, on cells
T1 sequence (looked up): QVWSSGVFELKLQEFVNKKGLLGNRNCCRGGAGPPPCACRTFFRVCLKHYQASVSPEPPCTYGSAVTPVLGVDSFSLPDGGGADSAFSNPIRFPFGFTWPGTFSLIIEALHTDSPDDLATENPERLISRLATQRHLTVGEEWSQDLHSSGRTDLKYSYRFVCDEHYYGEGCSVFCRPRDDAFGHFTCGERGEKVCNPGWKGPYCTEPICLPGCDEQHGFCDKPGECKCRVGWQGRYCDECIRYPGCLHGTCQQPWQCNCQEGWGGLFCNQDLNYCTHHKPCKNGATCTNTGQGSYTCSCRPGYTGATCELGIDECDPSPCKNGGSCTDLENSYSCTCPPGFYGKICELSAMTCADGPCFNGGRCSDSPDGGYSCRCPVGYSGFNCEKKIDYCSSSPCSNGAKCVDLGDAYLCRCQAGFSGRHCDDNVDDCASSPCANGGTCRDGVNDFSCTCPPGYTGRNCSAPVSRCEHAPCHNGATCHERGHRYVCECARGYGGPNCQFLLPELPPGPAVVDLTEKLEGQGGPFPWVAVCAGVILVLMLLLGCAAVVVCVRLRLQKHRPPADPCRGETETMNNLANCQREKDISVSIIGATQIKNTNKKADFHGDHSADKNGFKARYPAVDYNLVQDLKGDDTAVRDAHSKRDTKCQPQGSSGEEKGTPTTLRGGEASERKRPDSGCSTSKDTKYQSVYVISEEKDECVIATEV


Assays:
[1] = biological target: T2, human Jagged1 (human, UniProt P78504 34-1218); assay: FACS, 5 µg/ml, 293T cells with human Jagged1
T2 construct: whole, on cells
T2 sequence (P78504 34-1218): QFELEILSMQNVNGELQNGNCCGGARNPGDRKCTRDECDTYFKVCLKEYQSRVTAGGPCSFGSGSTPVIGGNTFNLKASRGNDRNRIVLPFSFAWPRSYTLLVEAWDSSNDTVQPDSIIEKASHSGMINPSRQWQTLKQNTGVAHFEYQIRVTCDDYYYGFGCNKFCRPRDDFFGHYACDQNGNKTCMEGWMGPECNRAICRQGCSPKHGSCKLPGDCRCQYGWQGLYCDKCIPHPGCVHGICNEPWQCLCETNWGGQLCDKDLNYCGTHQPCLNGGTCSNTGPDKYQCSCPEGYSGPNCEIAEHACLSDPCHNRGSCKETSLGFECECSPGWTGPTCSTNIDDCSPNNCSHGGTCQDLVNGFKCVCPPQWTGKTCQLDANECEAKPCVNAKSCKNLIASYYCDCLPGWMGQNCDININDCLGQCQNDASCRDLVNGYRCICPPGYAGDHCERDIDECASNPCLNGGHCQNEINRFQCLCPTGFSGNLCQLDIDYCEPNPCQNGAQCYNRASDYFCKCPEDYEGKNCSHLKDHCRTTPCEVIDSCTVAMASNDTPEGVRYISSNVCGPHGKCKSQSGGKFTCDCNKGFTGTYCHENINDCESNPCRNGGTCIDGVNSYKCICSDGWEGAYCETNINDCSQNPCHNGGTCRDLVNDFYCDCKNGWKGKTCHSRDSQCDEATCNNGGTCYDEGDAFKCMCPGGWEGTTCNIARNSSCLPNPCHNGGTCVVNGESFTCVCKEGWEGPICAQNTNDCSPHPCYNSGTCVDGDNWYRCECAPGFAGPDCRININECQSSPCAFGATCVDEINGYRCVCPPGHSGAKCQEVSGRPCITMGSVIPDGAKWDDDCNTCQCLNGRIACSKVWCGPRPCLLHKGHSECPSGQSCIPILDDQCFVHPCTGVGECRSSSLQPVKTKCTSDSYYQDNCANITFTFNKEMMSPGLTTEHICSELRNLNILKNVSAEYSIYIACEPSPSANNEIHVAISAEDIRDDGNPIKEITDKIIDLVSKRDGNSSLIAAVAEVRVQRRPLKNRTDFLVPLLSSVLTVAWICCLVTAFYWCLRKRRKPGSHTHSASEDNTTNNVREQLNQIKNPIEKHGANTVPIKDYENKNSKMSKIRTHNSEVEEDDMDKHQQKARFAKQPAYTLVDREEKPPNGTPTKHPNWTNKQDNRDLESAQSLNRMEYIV
Summary of the method: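 Cross-reactivity of anti-DLL4 antibodies is measured on cells seeded at 50000 per well in PBS/2% FCS. Antibody, diluted in the same buffer, is incubated for 1 h at 4 °C before flow cytometric analysis against mock-transfected controls.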

[2] = biological target: T1, human Dll1; assay: FACS, up to 300 µg/ml, HEK-293 cells stably overexpressing human Dll1
[3] = biological target: T2, human Jagged1; assay: FACS, up to 300 µg/ml, HEK-293 cells stably overexpressing human Jagged1
[4] = biological target: T3, full length human DLL4 (human, UniProt Q9NR61 27-685); assay: FMAT competition, supernatant vs Alexa-647 human Notch1/Fc, 293T cells with human DLL4
T3 construct: whole, on cells; also called native DLL4 expressed in HEK293 cells
T3 sequence (Q9NR61 27-685): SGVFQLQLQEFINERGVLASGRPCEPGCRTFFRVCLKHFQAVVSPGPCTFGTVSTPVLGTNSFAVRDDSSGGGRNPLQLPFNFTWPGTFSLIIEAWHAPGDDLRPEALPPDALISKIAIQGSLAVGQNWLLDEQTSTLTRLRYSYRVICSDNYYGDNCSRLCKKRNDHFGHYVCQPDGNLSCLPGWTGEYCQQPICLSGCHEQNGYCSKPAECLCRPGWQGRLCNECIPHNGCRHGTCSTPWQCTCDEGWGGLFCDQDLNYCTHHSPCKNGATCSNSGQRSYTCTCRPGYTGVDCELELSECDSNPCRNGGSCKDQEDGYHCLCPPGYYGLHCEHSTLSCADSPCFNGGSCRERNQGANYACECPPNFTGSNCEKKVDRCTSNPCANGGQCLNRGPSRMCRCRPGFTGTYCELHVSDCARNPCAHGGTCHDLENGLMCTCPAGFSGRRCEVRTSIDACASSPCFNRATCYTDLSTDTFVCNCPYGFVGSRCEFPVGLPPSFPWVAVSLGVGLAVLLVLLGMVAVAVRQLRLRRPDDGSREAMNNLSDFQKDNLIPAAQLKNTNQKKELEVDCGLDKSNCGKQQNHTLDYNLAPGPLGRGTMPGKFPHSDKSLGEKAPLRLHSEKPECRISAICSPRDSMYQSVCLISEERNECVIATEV
Method: Transfected and untransfected 239T cells were reconstituted in PBS containing 2% FCS and 5000 transfected and 17500 non-transfected cells were plated in 20 μl into wells of a 384-well tissue culture plate (Corning Costar, catalog #3712). Subsequently, 20 μl of hybridoma supernatant was added and plates were incubated at 4° C. for 1 h, at which time 20 μl of Alexa-647 labeled human Notch1/Fc was added at a final concentration of 6.7 ng/ml. After a further 3 h incubation at 4° C., the amount of bound Notch1/Fc was determined by reading the fluorescence in each well using an FMAT 8200 instrument (Applied Biosystems). Results are expressed as % inhibitions with the minimum inhibition in the assay being determined by the effects of non-DLL4 binding supernatants prepared in a similar way as described in example 2, and the maximum inhibition being defined as the signal obtained in the presence of a saturating concentration of unlabeled Notch1/Fc. N.T.=not tested

[5] = biological target: T3, full length human DLL4; assay: FMAT competition, purified antibody vs Alexa-647 human Notch1/Fc, 293T cells with human DLL4
Summary of the method: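 Blocking of Notch1/Fc binding to DLL4 was scored by FMAT fluorescence on DLL4-transfected 293T cells alongside untransfected cells. Antibodies, diluted serially from 5 μg/ml, were added for 1 h at 4 °C before Alexa-647 Notch1/Fc (100 ng/ml as added) for a further 3 h at 4 °C.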

[6] = biological target: T3, full length human DLL4; assay: FACS competition, unlabeled antibody vs competitor Alexa-647 4B4, HEK293 cells with human DLL4
Method: (§1) The ability of the purified DLL4 antibodies to inhibit the binding of other DLL4 antibodies to human DLL4 was assessed using a FACS assay. Briefly, antibodies were directly labelled with Alexa-647 using a commercially available labelling kit (e.g. Molecular Probes catalog #A30009, A-20186) as per the manufacturer's instructions. To determine the level of cross-competition, unlabelled anti-DLL4 antibodies (final concentration: 10-0.01 μg/ml) diluted in PBS containing 2% FCS were added to DLL4-expressing HEK 293 cells (as described in example 6; 50000 cells/well diluted in PBS containing 2% FCS) and incubated for 1 h at 4° C. Subsequently, Alexa-647 labeled anti-DLL4 antibodies were added at a final concentration of 0.1 μg/ml and plates were incubated for a further 1 h at 4° C. prior to washing and reading on a FACSCalibur instrument. Data that summarizes the ability of unlabeled antibodies (10, 1, 0.1 μg/ml) to compete with labeled 21H3RK for binding to human DLL4 is included in FIG. 3. Additional data that summarizes the ability of unlabeled antibodies to compete with labeled 21H3RK and 4B4 for binding to human DLL4 is included in Table 22.

[7] = biological target: T3, full length human DLL4; assay: FACS competition, unlabeled antibody vs competitor Alexa-647 21H3RK, HEK293 cells with human DLL4
Method: as §1

| Binder | Jagged1/293T X Geo mean [1] | fold over background [2] [fold] | fold over background [3] [fold] | Mean % inhibition [4] [%] | % inhibition at 0.020 nM [5] [%] | % inhibition at 0.070 nM [5] [%] | % inhibition at 0.21 nM [5] [%] | % inhibition at 0.62 nM [5] [%] | % inhibition at 1.9 nM [5] [%] | % inhibition at 5.6 nM [5] [%] | % inhibition at 16.7 nM [5] [%] | IC50 [5] [nM] | IC50 [6] [µg/mL] | IC50 [7] [µg/mL] | % inhibition n = 1 [4] [%] | % inhibition n = 2 [4] [%] | % inhibition n = 3 [4] [%] |
| --- | --- | --- | --- | --- | --- | --- | --- | --- | --- | --- | --- | --- | --- | --- | --- | --- | --- |
| 9G8 (antibody, IgG4, V domains shown, Fully human; used for IgG4 rows and where no isotype is printed; also called 9G8 IgG4) VH: QLQLQESGPGLVKPSETLSLSCTVSGGSISSSSSYWGLIRQPPGKGLEWIGSIYYSGSTYYSPSLKSRVSISVDTSKNQFSLKLSSVTAADTAVYFCARQGYGGHPDVFDIWGQGTMVTVSS VL: SSELTQSPSVSVSPGQTARITCSGDKLGDVYVCWYQQKTGQSPVLVIYEDTKRPSGIPERFSGSNSGNTATLTISGTQVMDEADYYCQAWDSTTAVIFGGGTKLTVL | 17.4 | < 2.5 | < 2.5 | 118 | 10 | 14 | 33 | 22 | 68 | 125 | 121 | 1.88 | 0.856 | 0.596 | 112 | 98 | 143 |
| 2H10 (antibody, IgG4, V domains shown, Fully human; used for IgG4 rows and where no isotype is printed; also called 2H10 IgG4) VH: QVQLVESGGGVVQPGRSLRLSCAASGFTFSRHGMHWVRQAPGKGLEWVAVVWFDGSNIYYADSVKGRFTISRDNSKNTLYLQMNSLRAEDTAMYYCARDSRIAAADYWGQGTLVTVSS VL: SYELTQPPSVSVSPGQTVSITCSGDKLGDKYVCWYQQKPGQSPVLVIYQESKRPSGIPERFSGSSSGNTATLTISGTQAMDEADYYCQTWDSSLVVFGGGTKLTVL | 9.28 | < 2.5 | < 2.5 | 127 | 6 | -3 | 14 | 27 | 45 | 119 | 111 | 2.05 | 1.15 | 0.723 | 107 | 150 | 124 |

Now from value to binder:

| Jagged1/293T X Geo mean [1] | fold over background [2] [fold] | fold over background [3] [fold] | Mean % inhibition [4] [%] | % inhibition at 0.020 nM [5] [%] | % inhibition at 0.070 nM [5] [%] | % inhibition at 0.21 nM [5] [%] | % inhibition at 0.62 nM [5] [%] | % inhibition at 1.9 nM [5] [%] | % inhibition at 5.6 nM [5] [%] | % inhibition at 16.7 nM [5] [%] | IC50 [5] [nM] | IC50 [6] [µg/mL] | IC50 [7] [µg/mL] | % inhibition n = 1 [4] [%] | % inhibition n = 2 [4] [%] | % inhibition n = 3 [4] [%] | Binder |
| --- | --- | --- | --- | --- | --- | --- | --- | --- | --- | --- | --- | --- | --- | --- | --- | --- | --- |
| 16.8 | < 2.5 | < 2.5 | 121 | 14 | 21 | 23 | 65 | 95 | 127 | 136 | 0.72 | 0.348 | 0.379 | – | – | – | 4B4 (antibody, IgG4, V domains shown, Fully human; used for IgG4 rows and where no isotype is printed; also called 4B4 IgG4; 4B4.1) VH: QVLLIQSGAEVKKPGASVQVSCKASGYTFTNYGVIWVRQAPGQGLEYMGWISAYNGNTNYAQKLQDRVTMTSDTSTTTAYMELRSLRSDDTAVYYCARELGSSFDYWGQGTLVTVSS VL: SYELTQPPSVSVSPGQTARITCSGDALPKKYAYWYQQKSGQAPVLVIYEDIKRPSGIPERFSGSSSGTMATLTISGAQVEDEADYYCFSTDNSGDHSVFGGGTKLTVL |
| 15.5 | – | – | – | -17 | -2 | 25 | 9 | 68 | 115 | 124 | 1.73 | 0.274 | 0.248 | – | – | – | 21H3 (antibody, IgG4, V domains shown, Fully human; used for IgG4 rows and where no isotype is printed; also called 21H3 IgG4) VH: QVQLVQSGAEVKKPGASVKVSCKASGYTFTNYGITWVRQAPGQGPEWMGWISAYNGNTNYAQKLQDRVTVTTDTSTSTAYMELRSLRSDDTAVYYCARDRVPRIPVTTEAFDIWGQGTMVTVSS VL: QSVLTQPPSASGTPGQRVTISCSGSSSNIGSYFVYWYQQLPGTAPKLLIYRNNQRPSGVPDRFSGSESGTSASLAISGLRSEDEADYYCAAWDDSLSGHWVFGGGTRLTVL |
